For 2 molecules, koff results are on record in patent publication US20180043012A1 (CSL BEHRING RECOMBINANT FACILITY, published 2018).

The target in assay [1] is T1, purified monomeric human VWF (von Willebrand factor) (human, UniProt P04275 764-2813, limits assumed).
T1 construct: Analyte in the mobile phase in all SPR experiments; Background text says mature plasma VWF is the 2050-residue polypeptide; also called VWF monomers; monomeric VWF
Nature of the assay: SPR, MGL1 immobilized on CM3 chip, fit of the dissociation phase alone.

In assay [2] the target is T1, purified monomeric human VWF (von …). Nature of the assay: SPR, CLEC10A immobilized on CM3 chip, fit of the dissociation phase alone. The procedure:
Interaction analysis cycles consisted of a 5 min sample injection phase. In this association phase, VWF bound to CLEC10A immobilized on the surface, and increased the surface mass. This phase was followed by a dissociation phase of 17 min in running buffer. In the dissociation phase, the sample was replaced by running buffer and the dissociated VWF was removed from the surface, resulting in a decreased surface mass. All samples were tested as repeat determination. […] Although kinetic data were analyzed using Biacore T200 Evaluation Software Version 1.0 (GE Healthcare Biosciences, Uppsala, Sweden), the data set was only used for information purpose.
SPR was predominantly used as mass detector. An interaction of VWF with CLEC10A was detected by an increase in accumulating mass and specific binding was identified by subtracting the binding response recorded from the control surface, followed by subtracting an average of the buffer blank injections. A time point was positioned 20 seconds after the end of sample injection and was evaluated as representative for a stable protein-ligand interaction, which was of interest. […] Furthermore, testing was performed at least in duplicate and the response was calculated relative to the baseline in each case. […] Moreover, dissociation rate constants (off-rate) were calculated by fitting the dissociation phase alone. […]

B1: mouse MGL1 (CLEC10A orthologous mouse receptor protein) (receptor, UniProt P49300 57-304, looked up)
chain: QNSQLRRDLGTLRATLDNTTSKIKAEFQSLDSRADSFEKGISSLKVDVEDHRQELQAGRDLSQKVTSLESTVEKREQALKTDLSDLTDHVQQLRKDLKALTCQLANLKNNGSEVACCPLHWTEHEGSCYWFSESEKSWPEADKYCRLENSHLVVVNSLEEQNFLQNRLANVVSWIGLTDQNGPWRWVDGTDFEKGFKNWAPLQPDNWFGHGLGGGEDCAHITTGGPWNDDVCQRTFRWICEMKLAKES
B1 yielded a koff in assay [1] of 0.000406 s⁻¹.

B2: recombinant human CLEC10A, extracellular domain (R&D Systems) (receptor, UniProt Q8IUN9 61-316, looked up)
chain: QNSKFQRDLVTLRTDFSNFTSNTVAEIQALTSQGSSLEETIASLKAEVEGFKQERQAGVSELQEHTTQKAHLGHCPHCPSVCVPVHSEMLLRVQQLVQDLKKLTCQVATLNNNASTEGTCCPVNWVEHQDSCYWFSHSGMSWAEAEKYCQLKNAHLVVINSREEQNFVQKYLGSAYTWMGLSDPEGAWKWVDGTDYATGFQNWKPGQPDDWQGHGLGGGEDCAHFHPDGRWNDDVCQRPYHWVCEAGLGQTSQESH
notes: extracellular domain; also called macrophage Gal-type lectin; CD301
Molecule B2 returned a koff in assay [2] of 0.00051 s⁻¹.
